Source: patent US20250257112A1 (SHIRE NPS PHARMACEUTICALS, published 2025)

Target: PTH receptor ("PTHIR")
Test: cell-based or functional assay

cAMP potency (EC50): 0.24 nM
B1: PTH(1-84) (ligand)
chain: SVSEIQLMHNLGKHLNSMERVEWLRKKLQDVHNFVALGAPLAPRDAGSQRPRKKEDNVLVESHEKSLGEADKADVNVLTKAKSQ
